According to the supplement of paper PMC9732359:
± gives the uncertainty stated by the source.

Assay: protein stability index of a GFP-peptide fusion (yeast GPS) (PSI 1-4); higher = more stable; sorted into four equal gates, so the index is relative within each strain
Outline: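 For each peptide, the protein stability index sums the read frequency in every gate after multiplying it by the gate number. Read frequencies came from plasmids that were PCR-amplified from each gate and Illumina-sequenced, with reads assigned to strains by barcodes. The gates were four equal bins of GFP/Cherry fluorescence ratio applied to mid-log yeast in leucine-free medium carrying a pooled library of tiled 17-residue yeast protein peptides fused downstream of GFP on a Cherry-expressing plasmid.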

Sequence	protein stability index (doa10∆)	protein stability index (pdr5∆)	protein stability index (san1∆)	protein stability index (ubr1∆)
IVVATEHNPSAHTASVG [COR1]	2.7 ± 0.07	2.46 ± 0.088	2.27 ± 0.06	1.77 ± 0.037
IRNEGSDAEEEEGEYKN [ISW2]	–	–	–	3.44 ± 0.11
RKKRTRRLKRKRRKVRA [RPL41A]	3.14 ± 0.16	3.21 ± 0.13	3.15 ± 0.12	3.17 ± 0.086
IEYCSAQPSVQSSFAGT [FAS2]	2.72 ± 0.11	3.07 ± 0.094	2.77 ± 0.073	2.56 ± 0.059
QQQGQIPQSQQVPQVRS [SNF5]	2.37 ± 0.036	2.73 ± 0.042	2.45 ± 0.063	2.36 ± 0.048
VDREAMLKPNIIFQQLL [YCG1]	2.98 ± 0.24	2.78 ± 0.19	–	–
TTSERVSNENKKNIDYQ [RRI1]	2.98 ± 0.083	3.03 ± 0.09	3.13 ± 0.085	3.05 ± 0.18
NLLLSASRDKTLISWKL [ASC1]	2.59 ± 0.071	2.79 ± 0.06	3.21 ± 0.05	2.2 ± 0.069
KIIELMNKIFTIFKSGE [YML103C/NUP188]	3.01 ± 0.08	2.22 ± 0.083	1.79 ± 0.11	2.8 ± 0.12
ECFISMQSTSPAVKQWD [SWI1]	2.34 ± 0.083	2.38 ± 0.058	2.4 ± 0.086	2.65 ± 0.06
MSEEGPQVKIREASKDN [RPB3]	3.18 ± 0.13	2.44 ± 0.039	2.94 ± 0.096	3.08 ± 0.083
TLRCSVVEACGNIVAEL [YCS4]	1.87 ± 0.095	2.19 ± 0.093	2.17 ± 0.15	1.55 ± 0.062
LVALKRNADELSSYQKK [PRE5]	2.4 ± 0.048	2.43 ± 0.041	2.68 ± 0.043	2.28 ± 0.033
SVDIGVETILSGKARIC [FAS2]	2.7 ± 0.12	2.75 ± 0.11	1.8 ± 0.12	2.78 ± 0.069
AIKKKEKLLRHVDSLIE [SRB7]	3.15 ± 0.094	2.88 ± 0.12	3.2 ± 0.094	3.27 ± 0.1
QKSVSLLSSESNIPTLI [YDL116W/NUP84]	2.73 ± 0.056	2.69 ± 0.065	2.8 ± 0.039	2.67 ± 0.05
GNSFHLMRELLKMMKLI [PRP8]	2.78 ± 0.051	2.41 ± 0.046	2.6 ± 0.065	2.43 ± 0.049
MGAINNNIPSLTSFAEE [SNF6]	3.2 ± 0.13	3.43 ± 0.1	3.37 ± 0.15	3.35 ± 0.1
CIIFITFEFINIAFDAH [YML031W/NDC1]	1.23 ± 0.043	1.44 ± 0.044	1.38 ± 0.085	1.32 ± 0.032
KCTAEGIKVSLLGIFDD [RPC25]	2.19 ± 0.077	1.69 ± 0.088	2.27 ± 0.099	2.04 ± 0.061
LSIAIVGKDTPFTIYDG [PRE5]	2.87 ± 0.066	2.94 ± 0.054	2.78 ± 0.08	3.07 ± 0.047
NRYAFSQPTNSTTTSLH [SMC4]	2.44 ± 0.079	2.33 ± 0.052	2.14 ± 0.11	2.26 ± 0.044
TTTRIQSQQAQPSDVMF [MED2]	2.91 ± 0.061	2.79 ± 0.057	3 ± 0.063	2.87 ± 0.043
TPESVKPANASHAIRLG [RGR1]	2.63 ± 0.049	2.42 ± 0.037	2.98 ± 0.045	2.47 ± 0.039
VTKITDMLLHKYYIVSS [SRB8]	1.45 ± 0.076	1.14 ± 0.068	1.65 ± 0.15	1.57 ± 0.077
VGGHNVTIREQINIMPS [SIR3]	2.91 ± 0.069	2.8 ± 0.066	2.71 ± 0.071	2.94 ± 0.067
SAGQPNLLLSASRDKTL [ASC1]	2.4 ± 0.063	2.77 ± 0.05	2.7 ± 0.041	1.91 ± 0.049

Sequence	protein stability index (doa10∆)	protein stability index (pdr5∆)	protein stability index (san1∆)	protein stability index (ubr1∆)
IKELLNITKNLKTFNGS [POP4]	1.99 ± 0.13	2 ± 0.064	2.46 ± 0.056	2.21 ± 0.047
NRQICLVQKTVQESGNI [GRR1]	3.44 ± 0.16	3.21 ± 0.077	2.81 ± 0.064	2.69 ± 0.1
FGELQFAFLNAMFFGNY [AAR2]	2.87 ± 0.069	2.61 ± 0.085	2.94 ± 0.067	3 ± 0.064
KVPQQAAGKRISHIEKR [SMC1]	3.04 ± 0.11	3.14 ± 0.12	2.97 ± 0.095	3.15 ± 0.12
NEAGRKLSDIFLSKPSK [SNF2]	2.94 ± 0.08	3.27 ± 0.087	3.21 ± 0.081	3.04 ± 0.093
DDTWYNLTEFVQMDKIR [AAR2]	2.82 ± 0.11	2.88 ± 0.081	2.79 ± 0.061	2.83 ± 0.084
ALYVLRERIRKGLQIYQ [PRP8]	2.54 ± 0.24	2.85 ± 0.11	2.26 ± 0.13	2.41 ± 0.29
IYNELSYELIKEECQIE [CSN9]	2.47 ± 0.08	2.66 ± 0.06	2.73 ± 0.057	3 ± 0.048
LYKFQNFQDLSYLSETL [YML103C/NUP188]	2.94 ± 0.091	2.87 ± 0.08	2.64 ± 0.12	2.49 ± 0.11
QIVSYCSNNKNSIKNVP [SSN2]	1.65 ± 0.083	2.14 ± 0.096	1.4 ± 0.096	1.79 ± 0.083
PEYAKVGDFLLQYANNA [SIN4]	2.4 ± 0.085	2.55 ± 0.069	2.5 ± 0.066	1.97 ± 0.044
YEGMKLGNHAITIDSVV [YMR129W/POM152]	2.27 ± 0.094	1.36 ± 0.12	1.64 ± 0.16	2 ± 0.15
ENESTNYQYKIQELRKL [MED7]	2.25 ± 0.054	2.61 ± 0.074	2.36 ± 0.074	2.69 ± 0.06
NDSETHTEDESTKELKF [BRN1]	3.2 ± 0.17	3.13 ± 0.13	3.17 ± 0.094	3.19 ± 0.068
MLPGSSNGGGKVKPIRG [RPO31]	3 ± 0.073	3.36 ± 0.13	3.15 ± 0.076	3.07 ± 0.068
AKKLSSFDFGNENEDED [ARP9]	3.24 ± 0.11	3.13 ± 0.12	–	3.15 ± 0.087
IPSLANNGNNSTSIQYH [POP6]	2.45 ± 0.054	2.95 ± 0.06	2.47 ± 0.066	2.59 ± 0.046
SVIPLKGRYAPETGDHV [RRP4]	2.53 ± 0.059	2.52 ± 0.052	2.67 ± 0.073	2.69 ± 0.041
NYVAVGDVSNLPYLDEL [QCR2]	3.13 ± 0.087	3.19 ± 0.096	2.97 ± 0.099	3.18 ± 0.051
LGKKKNVKEEETVAKSK [RPS8A]	3.22 ± 0.052	3.31 ± 0.05	3.335 ± 0.031	3.25 ± 0.039
WYQFSNSKDHKKITLQL [SIN4]	3.35 ± 0.13	3.47 ± 0.12	2.47 ± 0.22	2.86 ± 0.068
ILSKKWGFTNLDRPEYL [RPL10]	–	–	–	2.89 ± 0.26
TFLKYFGWLLSDNSVSV [IRR1]	2.67 ± 0.14	2.4 ± 0.11	2.24 ± 0.097	2.66 ± 0.11
TEVERAKSLLKLQLGQL [COR1]	1.42 ± 0.042	1.31 ± 0.048	1.36 ± 0.065	1.37 ± 0.037
LALERMVPKRSTIITKA [YCS4]	1.28 ± 0.1	1.47 ± 0.066	1.16 ± 0.11	1.08 ± 0.091
PLPTPFKVDDNVDFPSA [RPN2]	2.94 ± 0.054	2.75 ± 0.043	2.6 ± 0.074	2.63 ± 0.052
ELALLNHWRQNKGRAVY [BRR2]	1.21 ± 0.21	1.21 ± 0.13	1.21 ± 0.29	1.1 ± 0.083

Sequence	protein stability index (doa10∆)	protein stability index (pdr5∆)	protein stability index (san1∆)	protein stability index (ubr1∆)
NSMEYTGKITKMFQDIR [CDC53]	3.06 ± 0.27	3.41 ± 0.14	2.96 ± 0.085	3.28 ± 0.078
PLLPIVEELMKKRRGSR [SNU114]	2.4 ± 0.11	2.79 ± 0.12	2.87 ± 0.074	2.83 ± 0.13
TFTIKEFVSYYYAHSIP [SNU114]	1.88 ± 0.039	1.77 ± 0.045	2.25 ± 0.055	1.88 ± 0.052
VDRSKYNIELPLPPRID [RPT1]	3.33 ± 0.2	3.58 ± 0.26	3.15 ± 0.094	3.14 ± 0.17
IYRGVLNDENSDDYDNE [SMC1]	3.19 ± 0.24	3.41 ± 0.15	3.21 ± 0.24	3.42 ± 0.14
AQHESFLRQKICLMTLI [RPN9]	1.26 ± 0.072	1.33 ± 0.082	1.15 ± 0.11	1.56 ± 0.064
SLHSNSFSLTVSKEQFL [YJL039C/NUP192]	1.81 ± 0.065	1.8 ± 0.072	1.84 ± 0.12	1.43 ± 0.078
LYDHWDKYHEQWIKFLL [SSN8]	3.16 ± 0.2	3.1 ± 0.13	2.84 ± 0.071	2.72 ± 0.054
LDLLRPVVRAPTVKYNR [RPL13A]	1.64 ± 0.13	2.38 ± 0.2	1.7 ± 0.17	2.08 ± 0.11
DSETSDPNEVEIKKLLA [DIS3]	2.9 ± 0.075	3.07 ± 0.069	2.82 ± 0.075	3.27 ± 0.094
DTLKLRENLHILNEVFT [RRP6]	2.26 ± 0.092	2.87 ± 0.06	2.59 ± 0.058	2.4 ± 0.051
DPKSPTKRSIAIVFEEI [YMR129W/POM152]	2.73 ± 0.074	2.97 ± 0.087	2.77 ± 0.055	2.72 ± 0.078
IIPQDILDCVVTNSMRQ [YJR042W/NUP85]	3.01 ± 0.069	3.15 ± 0.072	3.35 ± 0.044	2.94 ± 0.063
HKVTQKKDIKIGTNDLF [SIR4]	2.63 ± 0.12	2.61 ± 0.11	2.7 ± 0.072	2.27 ± 0.13
AATVRSTIRRLREMVEA [RPL43A]	3.02 ± 0.084	2.8 ± 0.056	2.74 ± 0.086	3.09 ± 0.064
TYLLKNDLVKARDLLDD [RPN9]	2.7 ± 0.11	2.78 ± 0.11	–	2.52 ± 0.18
ERKTLERQQENLLIQRL [SWI3]	3.07 ± 0.09	3.28 ± 0.087	3.12 ± 0.078	3.09 ± 0.067
GINKIPPKPRKVLQLLR [RPL7A]	3.06 ± 0.087	3.15 ± 0.11	3.22 ± 0.061	3.15 ± 0.069
FEIDDEHRIRVFFDKRI [RPS6A]	1.88 ± 0.089	3.02 ± 0.12	2.17 ± 0.13	2.94 ± 0.16
GVERLIPVGDNTVVGIS [PRE4]	2.96 ± 0.089	2.91 ± 0.081	2.84 ± 0.064	2.69 ± 0.086
IVRDLDRPGSKFHKREV [RPL3]	3.07 ± 0.14	3.44 ± 0.28	2.92 ± 0.3	3.14 ± 0.16
LSFSWAILLIINLTQTY [NUT1]	1.5 ± 0.088	1.96 ± 0.069	2.24 ± 0.097	2.06 ± 0.041
PISAVLRGCKFLQSVDI [GRR1]	2.08 ± 0.041	2.08 ± 0.053	1.83 ± 0.052	2.01 ± 0.036
MTIPHMKYAVSKTSENK [SIR2]	3.14 ± 0.12	3.07 ± 0.16	2.75 ± 0.11	3.06 ± 0.1
QMMQQAQQKLKQNPGLM [SRP54]	2.83 ± 0.08	3.07 ± 0.082	3.12 ± 0.055	3.119 ± 0.031
